From IntAct's records for PubMed 32761762

B1: NAD-dependent protein deacetylase sirtuin-1 (Homo sapiens), Q96EB6 (parent)
chain: MADEAALALQPGGSPSAAGADREAASSPAGEPLRKRPRRDGPGLERSPGEPGGAAPEREVPAAARGCPGAAAAALWREAEAEAAAAGGEQEAQATAAAGEGDNGPGLQGPSREPPLADNLYDEDDDDEGEEEEEAAAAAIGYRDNLLFGDEIITNGFHSCESDEEDRASHASSSDWTPRPRIGPYTFVQQHLMIGTDPRTILKDLLPETIPPPELDDMTLWQIVINILSEPPKRKKRKDINTIEDAVKLLQECKKIIVLTGAGVSVSCGIPDFRSRDGIYARLAVDFPDLPDPQAMFDIEYFRKDPRPFFKFAKEIYPGQFQPSLCHKFIALSDKEGKLLRNYTQNIDTLEQVAGIQRIIQCHGSFATASCLICKYKVDCEAVRGDIFNQVVPRCPRCPADEPLAIMKPEIVFFGENLPEQFHRAMKYDKDEVDLLIVIGSSLKVRPVALIPSSIPHEVPQILINREPLPHLHFDVELLGDCDVIINELCHRLGGEYAKLCCNPVKLSEITEKPPRTQKELAYLSELPPTPLHVSEDSSSPERTSPPDSSVIVTLLDQAAKSNDDLDVSESKGCMEEKPQEVQTSRNVESIAEQMENPDLKNVGSSTGEKNERTSVAGTVRKCWPNRVAKEQISRRLDGNQYLFLPPNRYIFHGAEVYSDSEDDVLSSSSCGSNSDSGTCQSPSLEEPMEDESEIEEFYNGLEDEPDVPERAGGAGFGTDGDDQEAINEAISVKQEVTDMNYPSNKS
partner: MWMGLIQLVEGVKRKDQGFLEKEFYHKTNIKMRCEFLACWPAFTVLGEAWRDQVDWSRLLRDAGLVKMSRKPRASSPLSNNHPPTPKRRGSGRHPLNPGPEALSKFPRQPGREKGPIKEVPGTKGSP

Variants of: B1
Details: with csag2_human CSAG2, Q9Y5P2

effect of a mutation on the interaction	Variant
decreasing interaction	H363Y
